Source: US20260132208A1 (DOMAIN THERAPEUTICS, published 2026)

Legend:
pwt1 = target: T1, pwt1 (none (unmodified peptide)); assay: ELISA on coated peptide [cont.]
T1 construct: also called unmodified CCR8 N-terminal peptide
Summary of the method: (§1)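 Each antibody is tested at 1 μg/mL plus a 1/10 dilution against peptide coated at 500 ng/ml in carbonate/bicarbonate buffer. Binding runs 90 min at room temperature. After washing, TMB substrate is added for 15 min and OD gives the signal.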

pm2 = target: T2, pm2 (sulfated tyrosine(s) among Y15, Y16, Y17; which ones is not told (the underlining of Table 1 is lost in the text)); assay: ELISA on coated peptide [cont.]
T2 construct: also called sulfated CCR8 N-terminal peptide pm2
T2 sequence (peptide, as listed by the source): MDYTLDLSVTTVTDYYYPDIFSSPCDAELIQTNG
Summary of the method: as §1

T1 sequence (peptide, as listed by the source): as above

B1: anti-CCR8 mAb 1-20 (antibody, human IgG1, kappa)
heavy: not shown
light: DIVMTQAAPSLSVTPGESASISCTSSKSLLHSNGNTYLYWFLQKPGQSPQLLIYRMSNLASGVPDRFSGSGSGTAFTLKISRVEAEDVGVYYCMQHREYPFTFGSGTKLEIKRTVAAPSVFIFPPSDEQLKSGTASVVCLLNNFYPREAKVQWKVDNALQSGNSQESVTEQDSKDSTYSLSSTLTLSKADYEKHKVYACEVTHQGLSSPVTKSFNRGEC
notes: Humanized mAb, human IgG1 / kappa
B1: binds (pwt1); binds (pm2).
